{"source": "patent US20240408194A1", "about": "(ARIZONA BOARD OF REGENTS ON BEHALF OF ARIZONA STATE …, published 2024)", "molecular_target": "spike B1.17 (SARS-CoV-2)", "data": [{"binder": "LCB1 protein (designed binder) DKEWILQKIYEIMRLLDELGHAEASMRVSDLIYEFMKKGDERLLEEAERLLEEVER", "values": [{"measurement": "Kd", "value": 0.27, "unit": "nM"}]}]}
